Source: US20260116920A1 (PEPTIDREAM, published 2026)
Starred links: 1 amine or outer side, 2 acyl side, 3 side chain; linkers in the order of their positions; H or OH if unused. Positions of bridges follow the written chain, without caps; N, C: chain ends. Non-standard residues stand in square brackets, D forms with d. Primed or numbered codes have the meaning given here. No end group written: not given here. E(PEG8Me) = (S)-30-amino-27-oxo-2,5,8,11,14,17,20,23-octaoxa-26-azahentriacontane-31-oic acid, COCCOCCOCCOCCOCCOCCOCCOCCNC(=O)CC[C@H](N[*:1])C(=O)[*:2]; E(PEG4Me) = (S)-18-amino-15-oxo-2,5,8,11-tetraoxa-14-azanonadecane-19-oic acid, COCCOCCOCCOCCNC(=O)CC[C@H](N[*:1])C(=O)[*:2]; Phe(4-OMe)(3) = (S)-2-amino-3-(4-methoxyphenyl)propanoic acid (source code F4OMe), COc1ccc(C[C@H](N[*:1])C(=O)[*:2])cc1; F4aao = (S)-2-amino-3-(4-(carboxymethoxy)phenyl)propanoic acid, O=C([C@H](Cc1ccc(OCC(=O)[*:3])cc1)N[*:1])[*:2]; Phe(4-OMe) = F4OMe = (S)-2-amino-3-(4-methoxyphenyl)propanoic acid, COc1ccc(C[C@H](N[*:1])C(=O)[*:2])cc1; E(NHdPEG1Me) = N5-(1,3-dimethoxypropan-2-yl)-L-glutamine, COCC(COC)NC(=O)CC[C@H](N[*:1])C(=O)[*:2]; dkCOmeglumine = N6-(methyl((2S,3R,4R,5R)-2,3,4,5,6-pentahydroxyhexyl)carbamoyl)-D-lysine; Trp(1-CH2CO) = O=C([C@H](Cc1cn(CC(=O)[*:3])c2ccccc12)N[*:1])[*:2]; Trp(5-Cl) = N[C@@H](Cc1c[nH]c2ccc(Cl)cc12)C(=O)O; Nle(6-morpholino) = N[C@@H](CCCCN1CCOCC1)C(=O)O; Phe(3-COOH) = N[C@@H](Cc1cccc(C(=O)O)c1)C(=O)O; Trp(7-aza) = N[C@@H](Cc1c[nH]c2ncccc12)C(=O)O; NMePhe(3-Cl) = CN[C@@H](Cc1cccc(Cl)c1)C(=O)O; NMePhe(4-F) = CN[C@@H](Cc1ccc(F)cc1)C(=O)O; 3Pal(6-NH2) = Nc1ccc(C[C@H](N)C(=O)O)cn1; NMeW = CN[C@@H](Cc1c[nH]c2ccccc12)C(=O)O; Lys(N3) = [N-]=[N+]=NCCCC[C@H](N)C(=O)O; NMeY = CN[C@@H](Cc1ccc(O)cc1)C(=O)O; NMeR = CN[C@@H](CCCNC(=N)N)C(=O)O; NMeF = CN[C@@H](Cc1ccccc1)C(=O)O; 3Pal = N[C@@H](Cc1cccnc1)C(=O)O; 4Pal = N[C@@H](Cc1ccncc1)C(=O)O

B1: 894_0285 (peptide)
peptide: {CH2CO}-AV[NMeF]VWNY[Phe(4-OMe)]II[NMeR]RFYC-NH2
modifications: thioether N-15; not fully specified (residue 14); also: linker PEG4c
B2: 894_0283 (peptide)
peptide: {CH2CO}-AV[NMeF]VWNY[Phe(4-OMe)]IIR[dR]FYC-NH2
modifications: thioether N-15; not fully specified (residue 14); also: linker PEG4c
B3: 894_0253 (peptide)
peptide: {CH2CO}-AV[NMeF]V[Trp(5-Cl)]NY[Phe(4-OMe)]IIR[dR]FYC-NH2
modifications: thioether N-15; not fully specified (residue 14); also: linker PEG4c, place not given here
B4: 894_0372 (peptide)
peptide: {CH2CO}-AV[NMePhe(3-Cl)]VWNY[F4aao]IIR[E(PEG8Me)][Phe(3-COOH)]YC-NH2
modifications: thioether N-15; not fully specified (residue 14); also: linker PEG4c, place not given here
B5: 894_3193 (peptide)
peptide: AVFVWNYAIIRRAYC
modifications: 3:MeF3C,8:3Py,13:4Py,14:MeY; linker G-de-de-de-ds-ds-KN3; ClAc-1/C15 thioether ring; C-term NH2
B6: 894_0425 (peptide)
peptide: {CH2CO}-AV[NMePhe(3-Cl)]V[Trp(7-aza)]NY[F4aao]IIQ[Nle(6-morpholino)][4Pal][NMeY]C-NH2
modifications: thioether N-15; also: linker PEG4c, attachment not given here
B7: 894_0424 (peptide)
peptide: {CH2CO}-AV[NMePhe(3-Cl)]V[Trp(7-aza)]NY[F4aao]IIQR[4Pal][NMeY]C-NH2
modifications: thioether N-15; also: linker PEG4c, attachment not given here
B8: 894_0374 (peptide)
peptide: {CH2CO}-AV[NMePhe(3-Cl)]VWN[3Pal(6-NH2)][3Pal]IIR[E(PEG8Me)][Phe(3-COOH)]YC-NH2
modifications: thioether N-15; not fully specified (residue 14); also: linker PEG4c, place not given here
B9: 894_3150 (peptide)
peptide: {CH2CO}-AV[NMePhe(3-Cl)]VWNY[Phe(4-OMe)(3)]IIKRF[NMeY]C
modifications: thioether N-15; not fully specified (C-terminus)
B10: 894_0420 (peptide)
peptide: {CH2CO}-AV[NMePhe(3-Cl)]V[Trp(1-CH2CO)]NY[F4aao]IIQ[Nle(6-morpholino)][4Pal][NMeY]C-NH2
modifications: thioether N-15; also: linker PEG4c, attachment not given here
B11: 894_0373 (peptide)
peptide: {CH2CO}-AV[NMePhe(3-Cl)]VWNY[F4aao]IIR[E(PEG8Me)][4Pal]YC-NH2
modifications: thioether N-15; not fully specified (residue 14); also: linker PEG4c, place not given here
B12: 894_0395 (peptide)
peptide: {CH2CO}-AV[NMePhe(3-Cl)]V[Trp(1-CH2CO)]NY[F4aao]II[E(PEG4Me)]RF[NMeY]C-NH2
modifications: thioether N-15; also: linker PEG4c, place not given here
B13: 894_3170 (peptide)
peptide: {CH2CO}-AV[NMeF]V[Trp(1-CH2CO)]NY[F4aao]IIRRY[NMeY]C-NH2
modifications: thioether N-15; also: linker G-de-de-de-ds-ds-KN3, attachment not given here
B14: 894_3169 (peptide)
peptide: {CH2CO}-AV[NMeF]VWNY[F4aao]IIRRY[NMeY]C-NH2
modifications: thioether N-15; also: linker G-de-de-de-ds-ds-KN3, attachment not given here
B15: 894_0421 (peptide)
peptide: {CH2CO}-AV[NMePhe(3-Cl)]V[Trp(1-CH2CO)]NY[F4aao]IIQR[Phe(3-COOH)][NMeY]C-NH2
modifications: thioether N-15; also: linker PEG4c, attachment not given here
B16: 894_0376 (peptide)
peptide: {CH2CO}-AV[NMePhe(3-Cl)]VWN[3Pal(6-NH2)][F4aao]IIR[E(PEG8Me)][Phe(3-COOH)][NMeY]C-NH2
modifications: thioether N-15; also: linker PEG4c, place not given here
B17: 894_0393 (peptide)
peptide: {CH2CO}-AV[NMeF]VWNYYIIRRY[NMeY]C-NH2
modifications: thioether N-15; also: linker G-de-de-de-S-S-C(AcNMe), place not given here
B18: 894_0428 (peptide)
peptide: {CH2CO}-AV[NMePhe(3-Cl)]V[Trp(7-aza)]NY[F4aao]IIQ[Nle(6-morpholino)][Phe(3-COOH)][NMeY]C-NH2
modifications: thioether N-15; also: linker PEG4c, attachment not given here
B19: 894_0394 (peptide)
peptide: {CH2CO}-AV[NMeF]VWNYYIIRRY[NMeY]C-NH2
modifications: thioether N-15; also: linker G-de-de-de-de-de-C(AcNMe), place not given here
B20: 894_3192 (peptide)
peptide: {CH2CO}-AV[NMePhe(3-Cl)]VWNY[3Pal]IIRR[4Pal][NMeY]CG-{dkCOmeglumine-dkCOmeglumine-dkCOmeglumine-dS-dS-Lys(N3)-NH2}
modifications: thioether N-15
B21: 894_0375 (peptide)
peptide: {CH2CO}-AV[NMePhe(3-Cl)]VWN[3Pal(6-NH2)][3Pal]IIR[E(PEG8Me)][4Pal]YC-NH2
modifications: thioether N-15; not fully specified (residue 14); also: linker PEG4c, place not given here
B22: 894_0419 (peptide)
peptide: {CH2CO}-AV[NMePhe(3-Cl)]V[Trp(1-CH2CO)]NY[F4aao]IIQR[4Pal][NMeY]C-NH2
modifications: thioether N-15; also: linker PEG4c, place not given here
B23: 894_0377 (peptide)
peptide: {CH2CO}-AV[NMePhe(3-Cl)]VWN[3Pal(6-NH2)][F4aao]IIR[E(PEG8Me)][4Pal][NMeY]C-NH2
modifications: thioether N-15; also: linker PEG4c, place not given here
B24: 894_0426 (peptide)
peptide: {CH2CO}-AV[NMePhe(3-Cl)]V[Trp(7-aza)]NY[F4aao]II[E(PEG8Me)][Nle(6-morpholino)][4Pal][NMeY]C-NH2
modifications: thioether N-15; also: linker PEG4c, attachment not given here
B25: 894_0396 (peptide)
peptide: {CH2CO}-AV[NMePhe(3-Cl)]V[Trp(1-CH2CO)]NY[F4aao]II[E(NHdPEG1Me)]RF[NMeY]C-NH2
modifications: thioether N-15; also: linker PEG4c, place not given here
B26: 894_0283 (peptide)
peptide: {CH2CO}-AV[NMeF]VWNY[Phe(4-OMe)]IIR[dR]FYC-NH2
modifications: thioether N-15; not fully specified (residue 14); also: linker PEG4c
B27: 894_0262 (peptide)
peptide: {CH2CO}-AV[NMePhe(4-F)]V[NMeW]NY[Phe(4-OMe)]II[NMeR][dR]FYC-NH2
modifications: thioether N-15; not fully specified (residue 14); also: linker PEG4c, place not given here
B28: 894_0258 (peptide)
peptide: {CH2CO}-AV[NMePhe(4-F)]V[Trp(5-Cl)]NY[Phe(4-OMe)]IIR[dR]FYC-NH2
modifications: thioether N-15; not fully specified (residue 14); also: linker PEG4c, place not given here
B29: 894_0285 (peptide)
peptide: {CH2CO}-AV[NMeF]VWNY[Phe(4-OMe)]II[NMeR]RFYC-NH2
modifications: thioether N-15; not fully specified (residue 14); also: linker PEG4c
B30: 894_0261 (peptide)
peptide: {CH2CO}-AV[NMePhe(4-F)]V[NMeW]NY[Phe(4-OMe)]IIR[dR]FYC-NH2
modifications: thioether N-15; not fully specified (residue 14); also: linker PEG4c, place not given here
B31: 894_0259 (peptide)
peptide: {CH2CO}-AV[NMePhe(4-F)]V[Trp(5-Cl)]NY[Phe(4-OMe)]II[NMeR][dR]FYC-NH2
modifications: thioether N-15; not fully specified (residue 14); also: linker PEG4c, place not given here

Biological target: T1, human transferrin receptor (hTfR) (human, UniProt P02786 89-760)
T1 construct: used as 0.5 uM hTfR dimer solution, immobilised on an NTA sensor chip (Ni capture plus EDC/NHS coupling); also called human TfR; TfR1
T1 sequence (P02786 89-760 limits assumed): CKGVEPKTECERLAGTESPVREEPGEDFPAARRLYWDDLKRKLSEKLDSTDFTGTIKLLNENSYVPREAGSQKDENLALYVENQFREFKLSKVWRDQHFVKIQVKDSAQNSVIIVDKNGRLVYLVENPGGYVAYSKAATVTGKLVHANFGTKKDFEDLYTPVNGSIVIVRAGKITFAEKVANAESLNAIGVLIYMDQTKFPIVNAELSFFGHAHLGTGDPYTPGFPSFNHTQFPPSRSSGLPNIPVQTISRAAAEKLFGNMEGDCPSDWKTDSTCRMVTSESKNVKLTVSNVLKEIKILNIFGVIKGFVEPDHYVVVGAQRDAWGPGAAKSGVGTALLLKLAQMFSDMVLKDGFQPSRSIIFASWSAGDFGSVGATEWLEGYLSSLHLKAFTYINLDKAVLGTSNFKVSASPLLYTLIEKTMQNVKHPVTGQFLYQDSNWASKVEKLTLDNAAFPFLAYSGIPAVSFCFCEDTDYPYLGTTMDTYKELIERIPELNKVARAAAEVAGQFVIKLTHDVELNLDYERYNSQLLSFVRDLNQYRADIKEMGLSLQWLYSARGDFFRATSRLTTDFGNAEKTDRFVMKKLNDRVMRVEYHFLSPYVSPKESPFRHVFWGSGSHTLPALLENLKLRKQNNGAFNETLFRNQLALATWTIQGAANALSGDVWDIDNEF
Assay: SPR; B = KD 1-100 nM
How it was run: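 Recombinant hTfR dimer immobilised on Ni-NTA chip with EDC/NHS coupling; running buffer 10 mM HEPES pH 8.0, 150 mM NaCl, 0.05% Tween 20, 0.1% BSA, 1.0% DMSO. Peptides injected at 5–100 nM in single-cycle kinetics; KD from least-squares sensorgram fitting.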

| Binder | KD |
| --- | --- |
| B1 | 1 to 100 nM |
| B2 | 1 to 100 nM |
| B3 | 1 to 100 nM |
| B4 | 1 to 100 nM |
| B5 | 1 to 100 nM |
| B6 | 1 to 100 nM |
| B7 | 1 to 100 nM |
| B8 | 1 to 100 nM |
| B9 | 1 to 100 nM |
| B10 | 1 to 100 nM |
| B11 | 1 to 100 nM |
| B12 | 1 to 100 nM |
| B13 | 1 to 100 nM |
| B14 | 1 to 100 nM |
| B15 | 1 to 100 nM |
| B16 | 1 to 100 nM |

| Binder | KD |
| --- | --- |
| B17 | 1 to 100 nM |
| B18 | 1 to 100 nM |
| B19 | 1 to 100 nM |
| B20 | 1 to 100 nM |
| B21 | 1 to 100 nM |
| B22 | 1 to 100 nM |
| B23 | 1 to 100 nM |
| B24 | 1 to 100 nM |
| B25 | 1 to 100 nM |
| B26 | 1 to 100 nM |
| B27 | 1 to 100 nM |
| B28 | 1 to 100 nM |
| B29 | 1 to 100 nM |
| B30 | 1 to 100 nM |
| B31 | 1 to 100 nM |
